The source of these data is patent US20050063985A1 (MCW RESEARCH FOUNDATION, published 2005).

The target in the assay is T1, glutathione S transferase (pGEX-4T-2 vector control lysate) (UniProt P08515 1-218 = GST).
T1 construct: In a bacterial lysate; also called GST; Control bacterial lysates encoding only glutathione S transferase
Kind of assay: Western or dot blot, bacterial lysate.

T1 sequence (P08515 whole entry): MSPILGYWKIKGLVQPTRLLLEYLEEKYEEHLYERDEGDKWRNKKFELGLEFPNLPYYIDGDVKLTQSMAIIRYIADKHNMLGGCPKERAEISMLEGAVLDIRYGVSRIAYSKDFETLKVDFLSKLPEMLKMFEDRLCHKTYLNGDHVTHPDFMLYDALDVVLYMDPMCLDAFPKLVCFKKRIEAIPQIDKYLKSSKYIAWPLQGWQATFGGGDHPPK

B1: monoclonal antibody mab 166 (antibody, V domains shown)
VH: QVQLKQSGPGLVQPSQSLSITCTVSGFSLTSYGVHWVRQSPGKGLEWLGVIWSGGDTDYNAAFISRLSISKDNSKSQLFFKMNSLRATDTAIYYCARNRGDIYYDFTYAMDYWGQGTSVTVSS
VL: DIQMTQSPASLSASVGETVTITCRASGNIQNYLAWYQQTQGKSPQLLVYSAKTLADGVPSRFSGSGSGTQYSLKINSLQPEDFGSYYCQHFWSTPYTFGGGTKLEIKR
notes: also called mabl66; m166
For B1, the binding result is on record as “no binding”.
